# Laboratory results taken from PMC9750858, “Rapid biosensor development using plant hormone receptors as reprogrammable scaffolds” (Nature Biotechnology, 2022).
# Where two headings read alike, the source gives them in different places.
# T1: ABA-PYR1M complex (Arabidopsis thaliana, UniProt O49686, H60P/N90S)
# T1 construct: c-myc (display detection tag); expressed in transfected cells; host or cells: yeast (surface display of PYR1^M); the HAB1 variants were recombinant and purified
# T1 sequence (O49686 1-191 H60P/N90S): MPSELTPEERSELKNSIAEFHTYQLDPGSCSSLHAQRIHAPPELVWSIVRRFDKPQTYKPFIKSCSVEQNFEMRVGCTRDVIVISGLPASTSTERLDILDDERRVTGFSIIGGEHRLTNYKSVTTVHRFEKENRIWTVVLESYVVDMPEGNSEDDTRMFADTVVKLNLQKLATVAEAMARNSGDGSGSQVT
# Biological target: T1, ABA-PYR1M complex
# Experiment: Yeast surface display titration of HAB1 variants against PYR1^M in the presence of 500 nM ABA
# Format: binding
# Settings: HAB1 variant for the ABA-PYR1M complex, 95% CI in brackets, read-out: KD2
# Procedure: For crystallographic structures, PYL2 and ΔN-HAB1^T+ were expressed in E. coli and purified as described previously. Assays for phosphatase activity and apparent Tm, measured via thermal challenge using yeast surface display, were performed essentially as previously described.
# (a) Assessment of stabilized, inactivated 6xHis -MBP-ΔN -HAB1 variants. Experiments were repeated on two separat e days using independently generated batches of protein. Error bars indicate 1 SD of 3 measure ments . Sets of mutations f or each variant are noted in Supporting File 1.
# MBP-ΔN -HAB1 variants using p-NPP.
# HAB1 variants using YSD of PYR1M, in the presence of 500 nM ABA and 20 nM 6xHis -MBP-ΔN -HAB1 variant. The […]
# here ref ers to streptavidin -phycoerythrin.
# (b) Gating strategy for analysis of data shown in part (a). The f luorescence (a.u.) reported in part (a) is the gated ΔN - HAB 1T+ binding as measured by streptavidin -phycoeryt hrin (SAPE).
molecule,measurement,setting,value
"WT (636): 6×His–MBP–ΔN-HAB1 (C186S, C274S) (protein) RSVYELDSIPLWGTVSIQGNRSEMEDAFAVSPHFLKLPIKMLMGDHEGMSPSLTHLTGHFFGVYDGHGGHKVADYCRDRLHFALAEEIERIKDELSKRNTGEGRQVQWDKVFTSCFLTVDGEIEGKIGRAVVGSSDKVLEAVASETVGSTAVVALVCSSHIVVSNCGDSRAVLFRGKEAMPLSVDHKPDREDEYARIENAGGKVIQWQGARVFGVLAMSRSIGDRYLKPYVIPEPEVTFMPRSREDECLILASDGLWDVMNNQEVCEIARRRILMWHKKNGAPPLAERGKGIDPACQAAADYLSMLALQKGSKDNISIIVIDLKAQRKFKTRT",Kd,Biorep 1,2.53 nM
same,Kd,Biorep 2,5.01 nM
